Results reported in PMC12371506 (ACS Bio & Med Chem Au, 2025).
Residues, ends and D or L forms follow the SMILES beside them. *: point of attachment. AMC = Cc1cc(=O)oc2cc(N*)ccc12; Cbz = O=C(OCc1ccccc1)*; CH2Cl = ClC*; CH2F = FC*

T1: caspase-9 (Homo sapiens, UniProt P55211)
T1 sequence (P55211 1-315 limits assumed): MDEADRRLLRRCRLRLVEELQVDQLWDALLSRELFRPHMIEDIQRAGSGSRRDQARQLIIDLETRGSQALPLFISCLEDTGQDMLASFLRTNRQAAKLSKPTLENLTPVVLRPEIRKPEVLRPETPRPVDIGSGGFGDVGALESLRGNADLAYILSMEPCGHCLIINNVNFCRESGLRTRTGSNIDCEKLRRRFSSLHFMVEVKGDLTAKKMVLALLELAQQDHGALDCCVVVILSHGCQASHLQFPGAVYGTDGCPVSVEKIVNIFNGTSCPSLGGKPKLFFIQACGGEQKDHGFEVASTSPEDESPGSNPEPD
T1 sequence (P55211 331-416 limits assumed): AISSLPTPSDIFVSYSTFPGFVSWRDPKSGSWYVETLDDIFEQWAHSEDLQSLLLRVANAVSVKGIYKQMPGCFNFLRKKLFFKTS

T2: caspase-3 (Homo sapiens, UniProt P42574)
T2 sequence (P42574 29-175 limits assumed): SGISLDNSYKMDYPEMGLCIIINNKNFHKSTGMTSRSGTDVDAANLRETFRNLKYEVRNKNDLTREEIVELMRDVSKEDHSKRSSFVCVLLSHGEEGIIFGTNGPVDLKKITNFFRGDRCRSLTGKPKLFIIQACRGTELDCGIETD
T2 sequence (P42574 176-277 limits assumed): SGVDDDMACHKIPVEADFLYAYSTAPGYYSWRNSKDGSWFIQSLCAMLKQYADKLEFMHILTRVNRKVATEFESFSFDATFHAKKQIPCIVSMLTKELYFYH

T3: caspase-10 (Homo sapiens, UniProt Q92851)
T3 sequence (Q92851 220-415 limits assumed): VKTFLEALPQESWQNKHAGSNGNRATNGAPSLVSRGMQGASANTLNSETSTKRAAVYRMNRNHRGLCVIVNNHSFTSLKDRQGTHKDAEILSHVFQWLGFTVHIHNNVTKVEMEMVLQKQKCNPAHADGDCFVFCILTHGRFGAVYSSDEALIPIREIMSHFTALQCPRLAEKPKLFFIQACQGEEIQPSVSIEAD
T3 sequence (Q92851 416-521 limits assumed): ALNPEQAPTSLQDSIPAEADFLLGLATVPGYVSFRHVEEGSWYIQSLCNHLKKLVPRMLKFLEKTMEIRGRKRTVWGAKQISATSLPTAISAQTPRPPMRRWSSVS

T4: caspase-4 (Homo sapiens, UniProt P49662)
T4 sequence (P49662 81-270 limits assumed): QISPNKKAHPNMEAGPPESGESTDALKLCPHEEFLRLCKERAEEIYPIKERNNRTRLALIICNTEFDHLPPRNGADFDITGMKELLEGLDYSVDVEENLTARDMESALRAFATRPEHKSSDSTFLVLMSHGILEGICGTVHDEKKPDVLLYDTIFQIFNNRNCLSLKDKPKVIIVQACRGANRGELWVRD
T4 sequence (P49662 290-377 limits assumed): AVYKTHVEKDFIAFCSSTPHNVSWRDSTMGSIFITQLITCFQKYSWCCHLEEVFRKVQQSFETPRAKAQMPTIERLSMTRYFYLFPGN

T5: caspase-7 (Homo sapiens, UniProt P55210)
T5 sequence (P55210 24-198 limits assumed): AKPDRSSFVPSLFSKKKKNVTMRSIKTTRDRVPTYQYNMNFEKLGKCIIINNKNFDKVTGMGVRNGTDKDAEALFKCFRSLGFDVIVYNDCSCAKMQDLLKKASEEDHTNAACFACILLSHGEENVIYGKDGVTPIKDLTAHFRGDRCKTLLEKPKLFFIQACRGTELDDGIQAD
T5 sequence (P55210 207-303 limits assumed): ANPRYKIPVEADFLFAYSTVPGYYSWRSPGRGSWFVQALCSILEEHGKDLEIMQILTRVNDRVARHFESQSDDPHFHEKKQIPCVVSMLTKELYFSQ

T6: caspase-6 (Homo sapiens, UniProt P55212)
T6 sequence (P55212 24-179 limits assumed): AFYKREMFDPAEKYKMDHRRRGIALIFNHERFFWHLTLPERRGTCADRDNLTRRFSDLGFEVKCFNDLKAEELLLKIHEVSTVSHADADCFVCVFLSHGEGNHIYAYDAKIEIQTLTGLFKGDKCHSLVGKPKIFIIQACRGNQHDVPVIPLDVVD
T6 sequence (P55212 194-293 limits assumed): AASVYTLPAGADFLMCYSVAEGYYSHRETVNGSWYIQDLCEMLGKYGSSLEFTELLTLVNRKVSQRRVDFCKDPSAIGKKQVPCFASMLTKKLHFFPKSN

T7: caspase-9 (full-length) (Homo sapiens, UniProt P55211)
T7 sequence (P55211 1-315 limits assumed): T1 sequence (P55211 1-315 limits assumed)
T7 sequence (P55211 331-416 limits assumed): T1 sequence (P55211 331-416 limits assumed)

T8: caspase-1 (Homo sapiens, UniProt P29466)
T8 sequence (P29466 120-297 limits assumed): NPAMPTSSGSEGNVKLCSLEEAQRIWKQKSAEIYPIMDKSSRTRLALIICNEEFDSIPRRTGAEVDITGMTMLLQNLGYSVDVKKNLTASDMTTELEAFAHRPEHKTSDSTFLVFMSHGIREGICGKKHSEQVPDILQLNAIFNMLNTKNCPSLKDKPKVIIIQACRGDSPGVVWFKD
T8 sequence (P29466 317-404 limits assumed): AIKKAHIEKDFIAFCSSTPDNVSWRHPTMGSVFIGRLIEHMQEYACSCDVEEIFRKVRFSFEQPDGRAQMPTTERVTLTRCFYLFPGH

T9: caspase-11 (Mus musculus, UniProt P70343)
T9 sequence (P70343 81-266 limits assumed): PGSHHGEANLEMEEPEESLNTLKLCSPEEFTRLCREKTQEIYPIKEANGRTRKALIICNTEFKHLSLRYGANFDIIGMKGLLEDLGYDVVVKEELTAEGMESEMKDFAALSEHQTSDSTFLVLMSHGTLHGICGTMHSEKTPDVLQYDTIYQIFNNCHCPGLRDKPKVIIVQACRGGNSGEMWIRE
T9 sequence (P70343 286-373 limits assumed): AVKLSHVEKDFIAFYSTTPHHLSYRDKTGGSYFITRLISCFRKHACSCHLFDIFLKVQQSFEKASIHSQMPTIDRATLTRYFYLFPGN

T10: caspase-5 (Homo sapiens, UniProt P51878)
T10 sequence (P51878 137-327 limits assumed): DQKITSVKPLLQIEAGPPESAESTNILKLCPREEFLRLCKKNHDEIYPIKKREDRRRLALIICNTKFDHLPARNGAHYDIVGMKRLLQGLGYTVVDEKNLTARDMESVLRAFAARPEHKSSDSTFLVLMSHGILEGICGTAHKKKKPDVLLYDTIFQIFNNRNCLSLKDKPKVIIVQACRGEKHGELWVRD
T10 sequence (P51878 347-434 limits assumed): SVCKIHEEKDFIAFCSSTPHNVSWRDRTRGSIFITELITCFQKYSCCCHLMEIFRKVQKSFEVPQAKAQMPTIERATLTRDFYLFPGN

B1: N-acetyl-Leu-Glu-Ser-Asp-chloromethylketone (peptide)
peptide: Ac-LESD-CH2Cl
SMILES: CC(=O)N[C@@H](CC(C)C)C(=O)N[C@@H](CCC(=O)O)C(=O)N[C@@H](CO)C(=O)N[C@@H](CC(=O)O)C(=O)CCl

Experiments:
[1] = test system: HCC1806 triple-negative breast cancer cells; assay: TNF-α-induced extrinsic apoptosis in HCC1806 cells; settings: 10 μM inhibitor 30 min, then TNF-α; early time points (2–6 h)
caspase-9 = molecular target: T1, caspase-9; assay: In vitro inhibition assay, caspase-9; type: biochemical
caspase-8 = caspase-8 (Homo sapiens, UniProt Q14790); assay: In vitro substrate kinetics, caspase-8; type: biochemical; settings: for K M / Relative k cat/K M / V max: caspase-8, 0.25 activity units/μL
Sequence of caspase-8 (Q14790 217-374 limits assumed): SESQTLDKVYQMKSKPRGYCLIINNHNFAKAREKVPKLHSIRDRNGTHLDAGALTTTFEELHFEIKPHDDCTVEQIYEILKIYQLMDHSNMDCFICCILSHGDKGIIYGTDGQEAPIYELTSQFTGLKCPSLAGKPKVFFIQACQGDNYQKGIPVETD
Sequence of caspase-8 (Q14790 385-479 limits assumed): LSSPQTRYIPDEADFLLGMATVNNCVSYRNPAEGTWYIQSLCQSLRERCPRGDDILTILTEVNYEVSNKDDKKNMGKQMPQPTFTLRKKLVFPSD

caspase-3 = molecular target: T2, caspase-3; assay: In vitro substrate kinetics, caspase-3; type: biochemical; settings: caspase-3, 0.25 activity units/μL
caspase-10 = molecular target: T3, caspase-10; assay: In vitro substrate kinetics, caspase-10; type: biochemical; settings: for K M / Relative k cat/K M / V max: caspase-10, 0.25 activity units/μL
caspase-4 = molecular target: T4, caspase-4; assay: In vitro substrate kinetics, caspase-4; type: biochemical; settings: caspase-4, 0.25 activity units/μL
caspase-7 = molecular target: T5, caspase-7; assay: In vitro substrate kinetics, caspase-7; type: biochemical; settings: caspase-7, 0.25 activity units/μL
caspase-6 = molecular target: T6, caspase-6; assay: In vitro substrate kinetics, caspase-6; type: biochemical; settings: caspase-6, 0.25 activity units/μL
caspase-9 (full-length) = molecular target: T7, caspase-9 (full-length); assay: In vitro substrate kinetics, caspase-9; settings: caspase-9, 1 activity unit/μL, different preparation
caspase-1 = molecular target: T8, caspase-1; assay: In vitro substrate kinetics, caspase-1; type: biochemical; settings: caspase-1, 0.25 activity units/μL
caspase-11 = molecular target: T9, caspase-11; assay: In vitro substrate kinetics, caspase-11; type: biochemical
caspase-5 = molecular target: T10, caspase-5; assay: In vitro substrate kinetics, caspase-5; type: biochemical
THP1 monocytes = assay: TRAIL-induced extrinsic apoptosis in THP1 monocytes; type: cell-based, human; settings: 25 μM inhibitor
[2] = molecular target: Caspase-9 (full-length) (human), (recombinant) (human) (UniProt P55211)
[3] = mouse caspase-11, 0.25 activity units/μL
[4] = caspase-5, 0.25 activity units/μL

Row | Molecule | IC50 (caspase-9) [µM] | K M (caspase-8) [µM] | Relative k cat/K M (caspase-8) | V max (caspase-8) [RFU/min] | Relative k cat/K M (caspase-3) | K M (caspase-10) [µM] | Relative k cat/K M (caspase-10) | V max (caspase-10) [RFU/min] | K M (caspase-4) [µM] | Relative k cat/K M (caspase-4) | V max (caspase-4) [RFU/min] | Relative k cat/K M (caspase-7) | Relative k cat/K M (caspase-6) | Relative k cat/K M (caspase-9 (full-length)) | K M (caspase-1) [µM] | Relative k cat/K M (caspase-1) | V max (caspase-1) [RFU/min] | further results
1 | CC[C@H](C)[C@H](NC(=O)OCc1ccccc1)C(=O)N[C@@H](CCC(=O)OC)C(=O)N[C@H](C(=O)N[C@@H](CC(=O)OC)C(=O)CF)[C@@H](C)O [zIETD-FMK] (Cbz-IE(OMe)TD(OMe)-CH2F) | 1.47 ± 0.62 |  |  |  |  |  |  |  |  |  |  |  |  |  |  |  |  | caspases-3/7 activation (caspase-3/7 dye) [1]: inhibition of caspases-3/7 activation
2 | Ac-DEVD-AMC [reference compound] |  | 0.75 ± 0.12 | 310 ± 60.4 | 218.27 ± 2.74 | 482 ± 76.5 | 70.3 ± 14.6 | 7.20 ± 1.02 | 476.26 ± 38.71 | 702 ± 76.3 | 1.27 ± 0.18 | 862.73 ± 31.55 | 561 ± 81.2 | 13.3 ± 2.24 | did not cleave | 47.5 ± 30.8 | 1.41 ± 0.43 | 44.68 ± 15.51 | K M (caspase-3): 2.07 ± 0.36 µM; V max (caspase-3): 940.88 ± 31.57 RFU/min; K M (caspase-7): 2.36 ± 0.36 µM; V max (caspase-7): 1266.91 ± 38.79 RFU/min; K M (caspase-6): 35.3 ± 5.12 µM; V max (caspase-6): 455.67 ± 64.18 RFU/min
3 | N-acetyl-Leu-Glu-Ser-Asp-aminomethylcoumarin (Ac-LESD-{AMC}; SMILES CC(=O)N[C@@H](CC(C)C)C(=O)N[C@@H](CCC(=O)O)C(=O)N[C@@H](CO)C(=O)N[C@@H](CC(=O)O)C(=O)Nc1ccc2c(C)cc(=O)oc2c1) [Ac-LESD-AMC] |  | 9.98 ± 0.37 | 59.2 ± 3.26 | 590.08 ± 30.37 | did not detect processing | 87.9 ± 5.38 | 10.4 ± 1.30 | 898.63 ± 57.69 | 1867 ± 388 | 1.44 ± 0.18 | 2546.06 ± 156.63 | did not detect processing | did not detect processing | 0.15 | 93.9 ± 6.26 | 5.01 ± 0.41 | 465.55 ± 10.25 | catalytic efficiency within x-fold of preferred substrate Ac-LEHD-AMC (caspase-8; caspase-8): ≤ 3 fold; catalytic efficiency within x-fold of preferred substrate Ac-LEHD-AMC (caspase-10; caspase-10): ≤ 3 fold; K M (caspase-9 (full-length)): 1513.83 ± 441.20 µM; V max (caspase-9 (full-length)): 208.50 ± 45.00 RFU/min; Relative k cat/K M (caspase-9 (full-length); listed as LESD-AMC): 0.15 ± 0.02; K M (caspase-11; [3]): 503 ± 58.4 µM; Relative k cat/K M (caspase-11; [3]): 0.42 ± 0.02; V max (caspase-11; [3]): 211.01 ± 15.01 RFU/min; fold slower cleavage by caspase-11 than by caspase-8 (caspase-11; relative k cat/K M): ~100 fold; catalytic efficiency within x-fold of preferred substrate Ac-WEHD-AMC (caspase-5; caspase-5): ≤ 5 fold; K M (caspase-5; [4]): 154 ± 13.5 µM; Relative k cat/K M (caspase-5; [4]): 4.65 ± 0.43; V max (caspase-5; [4]): 703.19 ± 24.07 RFU/min
4 | COC(=O)CC[C@H](NC(=O)[C@H](CC(C)C)NC(=O)OCc1ccccc1)C(=O)N[C@@H](Cc1c[nH]cn1)C(=O)N[C@@H](CC(=O)OC)C(=O)CF [zLEHD-FMK] (Cbz-LE(OMe)HD(OMe)-CH2F) | 0.8 ± 0.32 |  |  |  |  |  |  |  |  |  |  |  |  |  |  |  |  | relative potency at inhibiting caspases-3/7 activity (caspases-3/7 dye) (THP1 monocytes): more potent than zIETD-FMK
5 | CCO[C@@H]1OC(=O)C[C@@H]1NC(=O)[C@@H]1CCCN1C(=O)[C@@H](NC(=O)c1ccc(N)c(Cl)c1)C(C)(C)C [VX-765, (S)-1-((S)-2-{[1-(4-amino-3-chloro-phenyl)-methanoyl]-amino}-3,3-dimethyl-butanoyl)-pyrrolidine-2-carboxylic acid ((2R,3S)-2-ethoxy-5-oxo-tetrahydro-furan-3-yl)-amide] | 0.54 ± 0.26 |  |  |  |  |  |  |  |  |  |  |  |  |  |  |  |  | 
6 | B1 |  |  |  |  |  |  |  |  |  |  |  |  |  |  |  |  |  | IC50 of inhibition of caspase activity (rate of cleavage of 200 μM Ac-LEHD-AMC) [2]: 7.45 µM
